From US20190112341

Tested on: EV71 structural polyprotein P1 (Wt HK08), unprocessed (98 kDa)

Row | Substance | proteolytic processing of P1 in planta, anti-VP1 western blot (vectors 1300+1310) | proteolytic processing of P1 in planta, anti-VP1 western blot (vectors 1300+1315)
1 | EV71 protease 3CD (Wt HK08) | the 98 kDa signal completely disappears and a new product is detected that corresponds in molecular weight to VP1 (33.5 kDa) | –
2 | EV71 protease 3CD (Wt GDFS08) | – | the 98 kDa signal completely disappears and a new product is detected that corresponds in molecular weight to VP1 (33.5 kDa)
